Data taken from patent publication US20110124552A1.

Target: mouse CCR2 on mouse cells (splenocytes, T cells, plasma cells, macrophages, EG7 lymphoma cells) (mouse) (UniProt P51683)
Assay: cell-based or functional assay

UniProt P51683, sequence (P51683 whole entry): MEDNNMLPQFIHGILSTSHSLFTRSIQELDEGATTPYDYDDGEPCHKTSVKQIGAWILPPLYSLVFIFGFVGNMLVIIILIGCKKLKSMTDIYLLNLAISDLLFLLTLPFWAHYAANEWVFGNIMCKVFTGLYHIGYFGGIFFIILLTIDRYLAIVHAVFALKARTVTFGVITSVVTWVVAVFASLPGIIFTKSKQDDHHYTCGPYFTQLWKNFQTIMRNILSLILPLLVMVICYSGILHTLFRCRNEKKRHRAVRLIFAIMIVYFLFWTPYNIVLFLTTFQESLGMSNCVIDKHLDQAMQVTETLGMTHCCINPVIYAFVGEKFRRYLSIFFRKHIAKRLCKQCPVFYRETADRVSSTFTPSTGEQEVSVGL

recombinant CCL2 (rCCL2, CCL2 1-76) (from UniProt P10148 24-99) (ligand)
CD4 T-cells positive for intracellular IL17: 19%
cell death of RA-derived CD4 T-cells, PI/Annexin-V co-staining, 48 h: 15%
